From patent publication US20230332164A1 (SYNLOGIC OPERATING, published 2023)

B1: CD47 on mouse CT26 cells (receptor, UniProt Q61735 19-303, looked up)
chain: QLLFSNVNSIEFTSCNETVVIPCIVRNVEAQSTEEMFVKWKLNKSYIFIYDGNKNSTTTDQNFTSAKISVSDLINGIASLKMDKRDAMVGNYTCEVTELSREGKTVIELKNRTVSWFSPNEKILIVIFPILAILLFWGKFGILTLKYKSSHTNKRIILLLVAGLVLTVIVVVGAILLIPGEKPVKNASGLGLIVISTGILILLQYNVFMTAFGMTSFTIAILITQVLGYVLALVGLCLCIMACEPVHGPLLISGLGIIALAELLGLVYMKFVASNQRTIQPPRNR
notes: whole, on cells; also called CD47 on CT26 cells; murine CD47 on CT26 cells

Experiments:
[1] = target: T1, recombinant SIRPα (Rndsystems) (mouse, UniProt P97797 32-373, limits assumed); assay: competition flow cytometry on CT26 cells
T1 construct: also called recombinant SIRPalpha; recombinant mSIRPα
T1 sequence (looked up): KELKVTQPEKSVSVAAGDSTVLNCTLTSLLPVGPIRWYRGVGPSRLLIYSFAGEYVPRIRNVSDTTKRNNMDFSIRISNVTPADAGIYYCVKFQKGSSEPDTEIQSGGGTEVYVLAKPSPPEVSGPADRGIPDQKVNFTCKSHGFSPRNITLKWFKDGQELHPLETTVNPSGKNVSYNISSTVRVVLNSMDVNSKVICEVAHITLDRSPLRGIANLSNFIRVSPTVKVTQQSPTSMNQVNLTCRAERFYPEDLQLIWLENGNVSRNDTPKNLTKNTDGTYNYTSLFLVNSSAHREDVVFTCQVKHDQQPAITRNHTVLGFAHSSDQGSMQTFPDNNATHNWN
Protocol: Cells were spun down, supernatant was aspirated, pellet was resuspended in 1 ml D-PBS, transferred into chilled assay tubes (1×10\hat{ }6 cells), and washed 3 times in D-PBS. Cells were resuspended in D-PBS with 0.5% BSA, to which the 10 jut of the supernatant (10× concentrated) were added and incubated for 1 hour at 4 C. Supernatant from SYN1557 was used as a baseline negative control. Cells were then resuspended in 0.5 ml PBS, diluted to proper concentration and analyzed on a flow cytometer.

IgG (control coating) [2] = assay: ELISA, IgG-coated plate, clarified bacterial supernatant
CD47 on mouse CT26 cells = target: B1; assay: flow cytometry on CT26 cells, 10x concentrated supernatant
IgG (control coating) [3] = assay: ELISA, IgG-coated plate, bacterial supernatant

## B1
[1]
  binding result: binds

B2: mCD40L1 (47-260), secreted by SYN3366 (ligand)
chain: VDYKDDDDKQLGGGHRRLDKVEEEVNLHEDFVFIKKLKRCNKGEGSLSLLNCEEMRRQFEDLVKDITLNKEEKKENSFEMQRGDEDPQIAAHVVSEANSNAASVLQWAKKGYYTMKSNLVMLENGKQLTVKREGLYYVYTQVTFCSNREPSSQRPFIVGLWLKPSSGSERILLKAANTHSSSQLCEQQSVHLGGVFELQAGASVFVNVTEASQVIHRVGFSSFGLLKLKGELNSKLEGKPIPNPLLGLDSTDPNSSSVDHHHHHH
IgG (control coating) [2]
  ELISA signal (unit not given): 0.052

B3: mCD40L2 (112-260), secreted by SYN3367 (ligand)
chain: VDYKDDDDKQLGGGMQRGDEDPQIAAHVVSEANSNAASVLQWAKKGYYTMKSNLVMLENGKQLTVKREGLYYVYTQVTFCSNREPSSQRPFIVGLWLKPSSGSERILLKAANTHSSSQLCEQQSVHLGGVFELQAGASVFVNVTEASQVIHRVGFSSFGLLKLKGELNSKLEGKPIPNPLLGLDSTDPNSSSVDHHHHHH
IgG (control coating) [2]
  ELISA signal (unit not given): 0.052

B4: mFD6x2SIRPα, secreted by SYN3160 (receptor)
chain: VDYKDDDDKQLGGSEEEVQIIQPDKSVSVAAGESAILHCTITSLFPVGPIQWFRGAGPARVLIYNQRQGPFPRVTTISETTRRENMDFSISISNITPADAGTYYCIKFRKGSPDTEFKSGAGTELSVRAKPSGGGGSGGGGSEEEVQIIQPDKSVSVAAGESAILHCTITSLFPVGPIQWFRGAGPARVLIYNQRQGPFPRVTTISETTRRENMDFSISISNITPADAGTYYCIKFRKGSPDTEFKSGAGTELSVRAKPSGSGELGGSGKPIPNPLLGLDSTGSGHHHHHH
notes: also called mFD62xSIRPα; FD1x2SIRPα
CD47 on mouse CT26 cells
  binding result: binds

B5: mCV1SIRPα, secreted by SYN3159 (receptor)
chain: VDYKDDDDKQLGGSEEELQIIQPDKSVLVAAGETATLRCTITSLFPVGPIQWFRGAGPGRVLIYNQRQGPFPRVTTVSDTTKRNNMDFSIRIGNITPADAGTYYCIKFRKGSPDDVEFKSGAGTELSVRAKPSGSGELGGSGKPIPNPLLGLDSTGSGHHHHHH
notes: also called PhoA-FLAG-CV1sirpα-V5-HIS
CD47 on mouse CT26 cells
  binding result: binds

B6: anti-mCD47 scFv, secreted by SYN3161 (scFv)
scFv: QVKLLQSGAALVKPGASVKMSCQASGYSFTDYWVTWVKQSHGQSLEWIGEIYPSNTVTNFNDNFKGKATLTVDKSTSTAYMELSRLTSEDSAIYYCTRIGNSGYRVGWFIYWGQGTLVTVLSGGGGSGGGGSGGGGSDTVLTQSPALAVSPGERVTISCKASESVSSHMHWYQQKPGQQPKLLIYKASNLASGVPARFSGSGSGTDFTLTIDPVEADDTATYFCQQGWNGPFTFGAGTRLELKRADAAGSGELGGSGKPIPNPLLGLDSTGSGHHHHHH
IgG (control coating) [3]
  ELISA signal (unit not given): 0.067

B7: WT mSIRPα (32-373), secreted by SYN2996 (receptor)
chain: VDYKDDDDKQLGGGKELKVTQPEKSVSVAAGDSTVLNCTLTSLLPVGPIKWYRGVGQSRLLIYSFTGEHFPRVTNVSDATKRNNMDFSIRISNVTPEDAGTYYCVKFQKGPSEPDTEIQSGGGTEVYVLAKPSPPEVSGPADRGIPDQKVNFTCKSHGFSPRNITLKWFKDGQELHHLETTVNPSGKNVSYNISSTVRVVLNSMDVHSKVICEVAHITLDRSPLRGIANLSNFIRVSPTVKVTQQSPTSMNQVNLTCRAERFYPEDLQLIWLENGNVSRNDTPKNLTKNTDGTYNYTSLFLVNSSAHREDVVFTCQVKHDQQPAITRNHTVLGLAHSSDQGSMQTFPGNNATHNWNKGELNSKLEGKPIPNPLLGLDSTDPNSSSVDHHHHHH
IgG (control coating) [3]
  ELISA signal (unit not given): 0.056
